{"source": "paper PMC2944802", "about": "“CpG-Methylation Regulates a Class of Epstein-Barr Virus Promoters”", "binders": {"B1": {"name": "BMRF1 meZRE A (dsDNA)", "DNA 1": "TTGGTGGATGTGCGAGCCATAAAGC", "DNA 2": "GCTTTATGGCTCGCACATCCACCAA", "modifications": "5mC at position 13 of strand 1; bottom-strand methylation not shown in material"}, "B2": {"name": "BBLF4 ZRE A (dsDNA)", "DNA 1": "ATGACTCGTGTGCGAGCCGGTTTCG", "DNA 2": "CGAAACCGGCTCGCACACGAGTCAT"}, "B3": {"name": "BHLF1 ZRE2 (dsDNA)", "DNA 1": "TTTAAGGTTTGCTCAGGAGTGGGG", "DNA 2": "CCCCACTCCTGAGCAAACCTTAAA"}, "B4": {"name": "BRLF1 meZRE2 (dsDNA)", "DNA 1": "CTAAGCTTATGAGCGATTTTATCAC", "DNA 2": "GTGATAAAATCGCTCATAAGCTTAG", "modifications": "5mC at position 14 of strand 1; bottom-strand methylation not shown in material"}, "B5": {"name": "BBLF4 ZRE B (dsDNA)", "DNA 1": "CTCTCCTATGAGCGTTATGTGGACT", "DNA 2": "AGTCCACATAACGCTCATAGGAGAG"}, "B6": {"name": "BRLF1 ZRE3 (dsDNA)", "DNA 1": "CAGTCAAAATTCGCGATGCTATAAA", "DNA 2": "TTTATAGCATCGCGAATTTTGACTG"}, "B7": {"name": "BRLF1 meZRE3 (dsDNA)", "DNA 1": "CAGTCAAAATTCGCGATGCTATAAA", "DNA 2": "TTTATAGCATCGCGAATTTTGACTG", "modifications": "5mC at positions 12 and 14 of strand 1; bottom-strand methylation not shown in material"}, "B8": {"name": "BMLF1 ZRE AP-1 (dsDNA)", "DNA 1": "GCGAAGCACTGACTCATGAAGGTGA", "DNA 2": "TCACCTTCATGAGTCAGTGCTTCGC"}, "B9": {"name": "oriLyt ZRE5 (dsDNA)", "DNA 1": "TTGTCACCTTTGCACATTTGGTCAG", "DNA 2": "CTGACCAAATGTGCAAAGGTGACAA"}, "B10": {"name": "BMRF1 ZRE A (dsDNA)", "DNA 1": "TTGGTGGATGTGCGAGCCATAAAGC", "DNA 2": "GCTTTATGGCTCGCACATCCACCAA"}, "B11": {"name": "BRLF1 ZRE2 (dsDNA)", "DNA 1": "CTAAGCTTATGAGCGATTTTATCAC", "DNA 2": "GTGATAAAATCGCTCATAAGCTTAG"}, "B12": {"name": "BBLF4 meZRE B (dsDNA)", "DNA 1": "CTCTCCTATGAGCGTTATGTGGACT", "DNA 2": "AGTCCACATAACGCTCATAGGAGAG", "modifications": "5mC at position 13 of strand 1; bottom-strand methylation not shown in material"}, "B13": {"name": "BBLF4 meZRE A (dsDNA)", "DNA 1": "ATGACTCGTGTGCGAGCCGGTTTCG", "DNA 2": "CGAAACCGGCTCGCACACGAGTCAT", "modifications": "5mC at position 13 of strand 1; bottom-strand methylation not shown in material"}}, "molecular_target": "Zta (BZLF1:Strep/FLAG) (Epstein-Barr virus, UniProt P03206 149-245)", "sequence (P03206 149-245)": "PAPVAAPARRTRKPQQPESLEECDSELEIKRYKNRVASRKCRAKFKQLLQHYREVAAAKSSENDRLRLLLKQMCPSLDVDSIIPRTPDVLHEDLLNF", "assay": "EMSA; apparent, Hill fit; […]; pH and temperature not stated", "details": "protein: recombinant; tags: tandem StrepII/FLAG; chain copies: 2; label: 32P 5' end; blunt", "data": [{"binder": "B1", "values": [{"measurement": "Kd", "result": "20.2 ± 12.5", "unit": "nM"}]}, {"binder": "B2", "values": [{"measurement": "Kd", "result": "219 ± 41", "unit": "nM"}]}, {"binder": "B3", "values": [{"measurement": "Kd", "result": "91.6 ± 38.5", "unit": "nM"}]}, {"binder": "B4", "values": [{"measurement": "Kd", "result": "12.7 ± 8.2", "unit": "nM"}]}, {"binder": "B5", "values": [{"measurement": "Kd", "result": "484 ± 244", "unit": "nM"}]}, {"binder": "B6", "values": [{"measurement": "Kd", "result": "1190 ± 227", "unit": "nM"}]}, {"binder": "B7", "values": [{"measurement": "Kd", "result": "135 ± 45", "unit": "nM"}]}, {"binder": "B8", "values": [{"measurement": "Kd", "result": "40.8 ± 23", "unit": "nM"}]}, {"binder": "B9", "values": [{"measurement": "Kd", "result": "37.7 ± 4.3", "unit": "nM"}]}, {"binder": "B10", "values": [{"measurement": "Kd", "result": "328 ± 166", "unit": "nM"}]}, {"binder": "B11", "values": [{"measurement": "Kd", "result": "113 ± 11.9", "unit": "nM"}]}, {"binder": "B12", "values": [{"measurement": "Kd", "result": "18 ± 4.2", "unit": "nM"}]}, {"binder": "B13", "values": [{"measurement": "Kd", "result": "16.3 ± 2.6", "unit": "nM"}]}]}
